Results published in the supplement of paper PMC9112550, “Optimization of the antimicrobial peptide Bac7 by deep mutational scanning” (BMC Biology, 2022).

Test system: Escherichia coli TOP10
Test: shrunken log2 fold change of peptide-encoding DNA abundance (4.5 h post-induction vs induction); higher = less antimicrobial activity (less host growth inhibition)
Conditions: time post-induction: 4.5 h; library: site-saturation at positions 5, 18, 19, 20
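Also: peptides expressed intracellularly from a pBAD plasmid library in pooled LB shake-flask culture, induced with 0.3% L-arabinose, DNA abundance read by NGS, three biological replicates, DESeq2 with apeglm shrinkage.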

Going from RRIRVRPPRLPRPRPRPFWMPRP to RRIRMRPPRLPRPRPRPTSPPRP, the “shrunken log2 fold change” value rises from 0.0403 to 0.278.

RRIRSRPPRLPRPRPRPNSLPRP and RRIRCRPPRLPRPRPRPGNFPRP are within 0.2 log units of each other in “shrunken log2 fold change” value: -0.165 for the first, -0.0984 for the second.

Going from RRIRARPPRLPRPRPRPMHGPRP to RRIRHRPPRLPRPRPRPCKQPRP, the “shrunken log2 fold change” value falls from 0.311 to -0.0199.

RRIRVRPPRLPRPRPRPWIVPRP and RRIRCRPPRLPRPRPRPDHDPRP are within 0.2 log units of each other in “shrunken log2 fold change” value: -0.266 for the first, -0.265 for the second.

Going from RRIRSRPPRLPRPRPRPAMYPRP to RRIRHRPPRLPRPRPRPAQRPRP, the “shrunken log2 fold change” value rises from -0.184 to 0.359.

Compared with RRIRWRPPRLPRPRPRPMCLPRP, RRIRARPPRLPRPRPRPHVCPRP is lower in “shrunken log2 fold change” value: -0.0933 for the first, -0.297 for the second.

First: RRIRPRPPRLPRPRPRPVSMPRP
Second: RRIRTRPPRLPRPRPRPAMSPRP
The “shrunken log2 fold change” value of the first is higher: 1.41 for the first, 0.00971 for the second.

Compared with RRIRPRPPRLPRPRPRPTASPRP, RRIRCRPPRLPRPRPRPGSIPRP is lower in “shrunken log2 fold change” value: 0.259 for the first, -0.311 for the second.

Going from RRIRDRPPRLPRPRPRPKVWPRP to RRIRYRPPRLPRPRPRPHKMPRP, the “shrunken log2 fold change” value falls from 0.437 to -0.153.

RRIRQRPPRLPRPRPRPNEPPRP and RRIRSRPPRLPRPRPRPKARPRP are within 0.2 log units of each other in “shrunken log2 fold change” value: -0.0605 for the first, 0.0932 for the second.

RRIRYRPPRLPRPRPRPLWRPRP and RRIRHRPPRLPRPRPRPCCAPRP are within 0.2 log units of each other in “shrunken log2 fold change” value: 0.0545 for the first, -0.0125 for the second.

RRIRLRPPRLPRPRPRPPVQPRP and RRIRGRPPRLPRPRPRPPKSPRP are within 0.2 log units of each other in “shrunken log2 fold change” value: 0.553 for the first, 0.616 for the second.

Going from RRIRLRPPRLPRPRPRPHTCPRP to RRIRCRPPRLPRPRPRPSYTPRP, the “shrunken log2 fold change” value falls from -0.339 to -0.748.

Compared with RRIRARPPRLPRPRPRPQAGPRP, RRIRTRPPRLPRPRPRPYRAPRP is lower in “shrunken log2 fold change” value: 0.195 for the first, -0.0709 for the second.

RRIRVRPPRLPRPRPRPRYYPRP and RRIRERPPRLPRPRPRPVWSPRP are within 0.2 log units of each other in “shrunken log2 fold change” value: -0.0159 for the first, 0.158 for the second.

First: RRIRSRPPRLPRPRPRPAILPRP
Second: RRIRNRPPRLPRPRPRPFVMPRP
The “shrunken log2 fold change” value of the first is lower: -0.313 for the first, -0.0984 for the second.

Compared with RRIRDRPPRLPRPRPRPMSKPRP, RRIRRRPPRLPRPRPRPVFAPRP is higher in “shrunken log2 fold change” value: 0.101 for the first, 0.455 for the second.

RRIRTRPPRLPRPRPRPYCHPRP and RRIRWRPPRLPRPRPRPMFNPRP are within 0.2 log units of each other in “shrunken log2 fold change” value: -0.213 for the first, -0.156 for the second.

RRIRHRPPRLPRPRPRPQPDPRP and RRIRLRPPRLPRPRPRPCNDPRP are within 0.2 log units of each other in “shrunken log2 fold change” value: -0.0791 for the first, -0.101 for the second.

RRIRFRPPRLPRPRPRPGRYPRP and RRIRERPPRLPRPRPRPCFPPRP are within 0.2 log units of each other in “shrunken log2 fold change” value: -0.0275 for the first, -0.166 for the second.

RRIRKRPPRLPRPRPRPNCHPRP and RRIRNRPPRLPRPRPRPYKCPRP are within 0.2 log units of each other in “shrunken log2 fold change” value: -0.131 for the first, -0.13 for the second.

Going from RRIRLRPPRLPRPRPRPVDYPRP to RRIRERPPRLPRPRPRPHNAPRP, the “shrunken log2 fold change” value rises from -0.434 to -0.192.

First: RRIRERPPRLPRPRPRPQFRPRP
Second: RRIRNRPPRLPRPRPRPRARPRP
The “shrunken log2 fold change” value of the first is lower: -0.00151 for the first, 0.856 for the second.

First: RRIRGRPPRLPRPRPRPFQLPRP
Second: RRIRCRPPRLPRPRPRPSIHPRP
The “shrunken log2 fold change” value of the first is higher: 0.0144 for the first, -0.929 for the second.

Going from RRIRRRPPRLPRPRPRPQSMPRP to RRIRERPPRLPRPRPRPHMLPRP, the “shrunken log2 fold change” value falls from 0.0695 to -0.376.

Going from RRIRARPPRLPRPRPRPEYHPRP to RRIRRRPPRLPRPRPRPRRKPRP, the “shrunken log2 fold change” value rises from 0.0454 to 0.43.

First: RRIRPRPPRLPRPRPRPIASPRP
Second: RRIRMRPPRLPRPRPRPGPAPRP
The “shrunken log2 fold change” value of the first is lower: -0.0044 for the first, 1.71 for the second.

Compared with RRIRSRPPRLPRPRPRPYSTPRP, RRIRYRPPRLPRPRPRPMSWPRP is higher in “shrunken log2 fold change” value: -1.05 for the first, -0.0422 for the second.

Compared with RRIRFRPPRLPRPRPRPGIQPRP, RRIRFRPPRLPRPRPRPKGKPRP is higher in “shrunken log2 fold change” value: -0.11 for the first, 0.195 for the second.

RRIRLRPPRLPRPRPRPNKLPRP and RRIRLRPPRLPRPRPRPHTNPRP are within 0.2 log units of each other in “shrunken log2 fold change” value: -0.307 for the first, -0.377 for the second.

RRIRMRPPRLPRPRPRPNLFPRP and RRIRYRPPRLPRPRPRPMARPRP are within 0.2 log units of each other in “shrunken log2 fold change” value: 0.124 for the first, -0.0425 for the second.

Going from RRIRNRPPRLPRPRPRPCVYPRP to RRIRLRPPRLPRPRPRPLEMPRP, the “shrunken log2 fold change” value rises from -0.215 to 0.203.

RRIRERPPRLPRPRPRPDRGPRP and RRIRFRPPRLPRPRPRPDHVPRP are within 0.2 log units of each other in “shrunken log2 fold change” value: 0.0208 for the first, 0.0266 for the second.

RRIRTRPPRLPRPRPRPEGIPRP and RRIRWRPPRLPRPRPRPDCIPRP are within 0.2 log units of each other in “shrunken log2 fold change” value: 0.0215 for the first, 0.0529 for the second.

Compared with RRIRERPPRLPRPRPRPSTTPRP, RRIRRRPPRLPRPRPRPKRWPRP is higher in “shrunken log2 fold change” value: -0.285 for the first, 0.409 for the second.

RRIRPRPPRLPRPRPRPSSLPRP and RRIRMRPPRLPRPRPRPENLPRP are within 0.2 log units of each other in “shrunken log2 fold change” value: 0.0404 for the first, -0.00111 for the second.

RRIRSRPPRLPRPRPRPFSCPRP and RRIRMRPPRLPRPRPRPSGIPRP are within 0.2 log units of each other in “shrunken log2 fold change” value: -0.0153 for the first, 0.0258 for the second.

With RRIRARPPRLPRPRPRPRQGPRP the “shrunken log2 fold change” value was 0.605.
